Test results: IntAct's records for PubMed 22510990

B1: Protein Niban 1 (Homo sapiens), Q9BZQ8 (parent)
chain: MGGSASSQLDEGKCAYIRGKTEAAIKNFSPYYSRQYSVAFCNHVRTEVEQQRDLTSQFLKTKPPLAPGTILYEAELSQFSEDIKKWKERYVVVKNDYAVESYENKEAYQRGAAPKCRILPAGGKVLTSEDEYNLLSDRHFPDPLASSEKENTQPFVVLPKEFPVYLWQPFFRHGYFCFHEAADQKRFSALLSDCVRHLNHDYMKQMTFEAQAFLEAVQFFRQEKGHYGSWEMITGDEIQILSNLVMEELLPTLQTDLLPKMKGKKNDRKRTWLGLLEEAYTLVQHQVSEGLSALKEECRALTKGLEGTIRSDMDQIVNSKNYLIGKIKAMVAQPAEKSCLESVQPFLASILEELMGPVSSGFSEVRVLFEKEVNEVSQNFQTTKDSVQLKEHLDRLMNLPLHSVKMEPCYTKVNLLHERLQDLKSRFRFPHIDLVVQRTQNYMQELMENAVFTFEQLLSPHLQGEASKTAVAIEKVKLRVLKQYDYDSSTIRKKIFQEALVQITLPTVQKALASTCKPELQKYEQFIFADHTNMIHVENVYEEILHQILLDETLKVIKEAAILKKHNLFEDNMALPSESVSSLTDLKPPTGSNQASPARRASAILPGVLGSETLSNEVFQESEEEKQPEVPSSLAKGESLSLPGPSPPPDGTEQVIISRVDDPVVNPVATEDTAGLPGTCSSELEFGGTLEDEEPAQEEPEPITASGSLKALRKLLTASVEVPVDSAPVMEEDTNGESHVPQENEEEEEKEPSQAAAIHPDNCEESEVSEREAQPPCPEAHGEELGGFPEVGSPASPPASGGLTEEPLGPMEGELPGEACTLTAHEGRGGKCTEEGDASQQEGCTLGSDPICLSESQVSEEQEEMGGQSSAAQATASVNAEEIKVARIHECQWVVEDAPNPDVLLSHKDDVKEGEGGQESFPELPSEE

Variants of: B1
Settings: with npm_human NPM1, P06748
npm_human NPM1, P06748, sequence (P06748 whole entry): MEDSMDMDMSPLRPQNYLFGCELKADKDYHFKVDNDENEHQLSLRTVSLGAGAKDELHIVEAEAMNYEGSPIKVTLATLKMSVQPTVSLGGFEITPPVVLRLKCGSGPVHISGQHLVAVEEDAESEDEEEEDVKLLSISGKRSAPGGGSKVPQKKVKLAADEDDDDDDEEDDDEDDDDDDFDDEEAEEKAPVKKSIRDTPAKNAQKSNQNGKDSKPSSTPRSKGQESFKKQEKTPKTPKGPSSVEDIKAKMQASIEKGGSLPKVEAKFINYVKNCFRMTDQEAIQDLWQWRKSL

Variant | effect of a mutation on the interaction
S602A | decreasing interaction

Variants of: B1
Settings: with npm_human NPM1, P06748
Remark: another data set of the same source

Variant | effect of a mutation on the interaction
S602D | increasing interaction
